B1: Rrp41^D182A (S. solfataricus exosome RNase PH subunit Rrp41 with the D182A point mutation) (enzyme)
chain: MREMLQVERPKLILDDGKRTDGRKPDELRSIKIELGVLKNADGSAIFEMGNTKAIAAVYGPKEMHPRHLSLPDRAVLRVRYHMTPFSTDERKNPAPSRREIELSKVIREALESAVLVELFPRTAIDVFTEILQADAGSRLVSLMAASLALADAGIPMRDLIAGVAVGKADGVIILDLNETEAMWGEADMPIAMMPSLNQVTLFQLNGSMTPDEFRQAFDLAVKGINIIYNLEREALKSKYVEFKEEGV
notes: Rrp41, RNase PH subunit of the Sulfolobus solfataricus exosome, with D182A; Three copies stand in the 9-subunit complex 3*(Rrp41/Rrp42/Rrp4); the construct is not described here; source: E. coli, recombinantly expressed, purified
B2: Rrp4 (S. solfataricus exosome RNA binding protein) (natural protein)
chain: MNMSQSQKIVLQPRSIVVPGELLAEGEFQIPWSPYILKINSKYYSTVVGLFDVKDTQFEVIPLEGSFYYPKINDIVIGLVEDVEIYGWVVDIKAPYKAYLPASNLLGRSINVGEDLRRYLDVGDYVIARIENFDRSIDPVLSVKGKDLGRVSNGIVIDIMPVKVPRVIGKNKSMYETLTSKSGCSIFVANNGRIWATCPSRFSEEILIEAIRKIENESHIKGLTDRIKQFIEEKLGERNASSGETKTNS
notes: Three copies stand in the 9-subunit complex; source: E. coli, recombinantly expressed, purified

For test [1], the target named is S. solfataricus exosome, nonameric 3*(Rrp41/Rrp42/Rrp4) complex (Saccharolobus solfataricus, UniProt Q9UXC2, D182A). To be noted: 1.8 Å Pi-bound structure (4ba1), 10 mM Pi soak with 1 mM 7mer poly(A) RNA, RNA not visible; also 2.5 Å structure with RNA and Pi (4ba2); Rrp41 active site R99, G137, S138, R139; catalytically inactive.
The target of test [2] is B2. Briefly: crystal structure; Rrp4/Rrp41^D182A/Rrp42 crystals, space group P213, one copy of each subunit in the asymmetric unit; soaked with 7 mer poly(A) RNA and Pi; 1.8 Å (Pi bound) and 2.5 Å (RNA and Pi bound). To be noted: both partners purified.
In test [3] the target is T1, Rrp42 (S. solfataricus exosome RNase PH subunit) (S. solfataricus, UniProt Q9UXC0 1-275).
T1 construct: Rrp42, RNase PH subunit of the Sulfolobus solfataricus exosome; Three copies stand in the 9-subunit complex; source: E. coli, recombinantly expressed, purified
T1 sequence: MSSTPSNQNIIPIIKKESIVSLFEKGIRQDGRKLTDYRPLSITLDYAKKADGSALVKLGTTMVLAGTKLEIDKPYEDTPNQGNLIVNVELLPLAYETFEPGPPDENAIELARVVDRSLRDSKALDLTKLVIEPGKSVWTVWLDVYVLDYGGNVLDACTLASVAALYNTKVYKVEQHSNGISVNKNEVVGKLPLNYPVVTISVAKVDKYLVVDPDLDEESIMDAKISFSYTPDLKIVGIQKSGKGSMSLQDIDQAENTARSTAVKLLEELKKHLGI
The description is as above. The conditions noted are these: both partners purified.

Consider `O=P(O)(O)O` [Pi, inorganic phosphate], for which the “X-ray crystal structure, crystal soaking” value in test [1] is reported as “the Pi ion is bound by four residues from the Rrp41 subunit”.
Consider B1, for which the binding result in test [2] and in test [3] was “binds” throughout.
On to B2, for which the binding result in test [3] was “binds”.
